From paper PMC8528861, “Structural and functional analysis of target recognition by the lymphocyte adaptor protein LNK” (Nature Communications, 2021)

Columns and labels:
[1] = molecular target: M. musculus LNK SH2 domain (residues 324–446), wild type (mouse) (UniProt O09039); experiment: SPR; competition: biotinylated IL6ST pY757 peptide immobilised on a streptavidin chip; 0.1–0.5 μM WT LNK SH2 domain pre-incubated with phosphopeptide and flowed over; 10 mM HEPES pH 7.4, 150 mM NaCl, 3.4 mM EDTA, 0.005% Tween 20; response normalised to LNK only, IC50 fit
[2] = molecular target: biotinylated JAK2 pY813 peptide; experiment: SPR; direct binding: biotinylated JAK2 pY813 immobilised on a streptavidin chip; LNK and SH2B SH2 domains flowed over for 420 s at 30 μL/min; 10 mM HEPES pH 7.4, 150 mM NaCl, 3.4 mM EDA, 0.005% Tween 20

Sequence of M. musculus LNK SH2 domain (residues 324–446), wild type (mouse) (O09039 324-446): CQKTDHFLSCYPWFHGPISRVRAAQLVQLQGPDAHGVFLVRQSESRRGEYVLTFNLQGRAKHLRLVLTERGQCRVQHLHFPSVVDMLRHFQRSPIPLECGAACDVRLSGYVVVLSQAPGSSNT

Substance | IC50 [1] [nM] | other results
JAK2 pY813 peptide mutant +3F | 1430 | –
JAK2 pY813 peptide mutant +4A | 90 | –
JAK2 pY813 peptide mutant −1A | 150 | –
M. musculus LNK SH2 domain R387C (from UniProt O09039 325-438) (domain or fragment) | – | fold loss in affinity relative to the WT SH2 domain [2]: 3 fold
M. musculus LNK SH2 domain R387H (from UniProt O09039 325-438) (domain or fragment) | – | fold loss in affinity relative to the WT SH2 domain [2]: 10 fold
mouse SH2B SH2 domain (from UniProt Q91ZM2 527-625) (domain or fragment) | – | Kd [2]: 100 nM

Continued, in another order:

IC50 [1] [nM] | Substance | other results
430 | JAK2 pY813 peptide mutant +1A | –
300 | JAK2 pY813 peptide mutant +5A | –
